Values quoted from earlier work, collected in paper PMC8348223.
pKd: −log10 of the molar value.

How the values were obtained:
Bax = Bax (UniProt Q07812)
Bcl-XL = Bcl-XL (UniProt Q07817)
Sequence of Bcl-XL (Q07817 whole entry): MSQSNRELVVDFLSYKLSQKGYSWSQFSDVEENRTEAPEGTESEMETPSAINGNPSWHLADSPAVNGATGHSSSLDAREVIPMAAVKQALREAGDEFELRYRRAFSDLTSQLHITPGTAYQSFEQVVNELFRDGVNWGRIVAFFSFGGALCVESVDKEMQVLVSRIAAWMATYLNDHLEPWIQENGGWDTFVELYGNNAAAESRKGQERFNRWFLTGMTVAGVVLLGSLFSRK

Sequence of tBid (P55957 61-195): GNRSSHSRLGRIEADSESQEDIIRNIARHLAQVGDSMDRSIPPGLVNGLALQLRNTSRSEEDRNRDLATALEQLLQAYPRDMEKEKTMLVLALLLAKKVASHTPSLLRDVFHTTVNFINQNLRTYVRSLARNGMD
Sequence of Bax (Q07812 whole entry): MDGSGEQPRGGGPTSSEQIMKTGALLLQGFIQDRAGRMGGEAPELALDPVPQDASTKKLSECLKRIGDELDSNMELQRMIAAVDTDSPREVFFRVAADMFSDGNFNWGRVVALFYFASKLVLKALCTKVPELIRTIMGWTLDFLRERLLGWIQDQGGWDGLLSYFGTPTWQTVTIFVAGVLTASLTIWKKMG

- pKd (Bax): 7.70
- pKd (Bcl-XL): 9.00
Substance: tBid (from UniProt P55957)
